From US20090087437A1 (Dana-Farber, published 2009)

Key:
Assay in all cases: co-immunoprecipitation from cell lysates, western blot
cIAP1 = cIAP1 (UniProt Q13490 1-618)
Bcl-xL = molecular target: T1, Bcl-xL (UniProt Q07817 1-233)
T1 construct: also called multidomain antiapoptotic Bcl-xL protein

Bcl-2 = molecular target: T2, Bcl-2 (UniProt P10415 1-239)
T2 construct: also called multidomain antiapoptotic Bcl-2 protein

XIAP = XIAP (UniProt P98170 1-497)
cIAP2 = molecular target: T3, cIAP2 (UniProt Q13489 1-604)
T3 construct: The list of antibodies in the same sentence prints 'cIAP', while the result names 'cIAP2'
T3 sequence (Q13489 whole entry): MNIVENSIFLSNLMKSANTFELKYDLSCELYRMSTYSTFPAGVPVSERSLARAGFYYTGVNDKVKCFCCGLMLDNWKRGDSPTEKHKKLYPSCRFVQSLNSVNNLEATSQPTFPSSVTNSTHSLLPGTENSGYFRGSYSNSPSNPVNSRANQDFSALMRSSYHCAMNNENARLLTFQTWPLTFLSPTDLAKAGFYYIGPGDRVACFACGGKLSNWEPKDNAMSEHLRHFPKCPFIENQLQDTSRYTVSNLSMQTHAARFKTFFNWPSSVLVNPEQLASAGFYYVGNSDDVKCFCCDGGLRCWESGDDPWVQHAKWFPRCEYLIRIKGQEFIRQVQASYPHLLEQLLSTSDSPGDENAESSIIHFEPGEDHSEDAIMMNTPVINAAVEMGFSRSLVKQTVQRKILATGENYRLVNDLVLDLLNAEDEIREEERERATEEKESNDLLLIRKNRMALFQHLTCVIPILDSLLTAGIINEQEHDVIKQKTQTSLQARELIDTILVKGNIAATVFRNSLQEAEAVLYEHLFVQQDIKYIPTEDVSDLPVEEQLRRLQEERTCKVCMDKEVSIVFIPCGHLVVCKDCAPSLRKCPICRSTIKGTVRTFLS

Measured: binding result

T2 sequence (P10415 whole entry): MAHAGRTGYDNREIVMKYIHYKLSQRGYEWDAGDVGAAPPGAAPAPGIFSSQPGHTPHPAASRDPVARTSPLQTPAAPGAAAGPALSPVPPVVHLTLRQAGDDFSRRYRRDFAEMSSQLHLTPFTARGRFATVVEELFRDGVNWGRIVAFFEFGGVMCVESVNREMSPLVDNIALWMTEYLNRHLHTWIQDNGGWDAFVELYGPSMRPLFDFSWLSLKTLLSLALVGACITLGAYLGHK
T1 sequence (Q07817 whole entry): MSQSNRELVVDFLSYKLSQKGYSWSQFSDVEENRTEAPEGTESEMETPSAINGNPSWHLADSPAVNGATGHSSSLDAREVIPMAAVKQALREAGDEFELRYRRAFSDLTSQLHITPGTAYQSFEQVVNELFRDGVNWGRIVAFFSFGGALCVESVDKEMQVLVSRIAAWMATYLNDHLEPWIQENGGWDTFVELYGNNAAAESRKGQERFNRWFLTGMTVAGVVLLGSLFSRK
Sequence of XIAP (P98170 whole entry): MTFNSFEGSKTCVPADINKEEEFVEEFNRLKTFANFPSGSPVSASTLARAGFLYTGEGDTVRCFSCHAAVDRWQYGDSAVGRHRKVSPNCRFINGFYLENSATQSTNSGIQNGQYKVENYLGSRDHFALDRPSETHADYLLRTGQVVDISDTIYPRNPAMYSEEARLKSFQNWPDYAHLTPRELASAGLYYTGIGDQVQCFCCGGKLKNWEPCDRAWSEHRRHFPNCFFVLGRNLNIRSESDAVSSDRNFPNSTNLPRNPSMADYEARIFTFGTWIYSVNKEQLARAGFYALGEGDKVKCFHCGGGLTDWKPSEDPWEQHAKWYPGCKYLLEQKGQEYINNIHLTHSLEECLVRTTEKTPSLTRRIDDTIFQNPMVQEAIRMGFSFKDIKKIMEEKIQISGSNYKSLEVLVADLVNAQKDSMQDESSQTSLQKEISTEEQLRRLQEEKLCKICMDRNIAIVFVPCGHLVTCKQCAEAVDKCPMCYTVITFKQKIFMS
Sequence of cIAP1 (Q13490 whole entry): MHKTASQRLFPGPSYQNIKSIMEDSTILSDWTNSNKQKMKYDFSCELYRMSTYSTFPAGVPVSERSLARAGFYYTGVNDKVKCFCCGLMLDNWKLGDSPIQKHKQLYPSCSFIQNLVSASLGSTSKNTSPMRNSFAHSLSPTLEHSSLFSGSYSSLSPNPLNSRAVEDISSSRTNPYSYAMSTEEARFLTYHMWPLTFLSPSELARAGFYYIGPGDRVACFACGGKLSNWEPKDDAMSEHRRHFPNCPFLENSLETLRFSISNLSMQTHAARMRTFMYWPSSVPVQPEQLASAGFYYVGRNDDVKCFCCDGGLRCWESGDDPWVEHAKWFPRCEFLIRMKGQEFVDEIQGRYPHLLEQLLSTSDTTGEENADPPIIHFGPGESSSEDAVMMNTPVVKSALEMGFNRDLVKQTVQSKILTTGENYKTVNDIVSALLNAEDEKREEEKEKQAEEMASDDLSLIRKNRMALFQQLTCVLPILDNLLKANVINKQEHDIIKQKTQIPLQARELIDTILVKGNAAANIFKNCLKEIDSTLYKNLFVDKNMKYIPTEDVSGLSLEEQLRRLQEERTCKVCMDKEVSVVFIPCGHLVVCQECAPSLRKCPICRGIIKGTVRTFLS

B1: MUC1 C-terminal transmembrane subunit (MUC1-C) (other, UniProt P15941 1098-1255, looked up)
chain: SVVVQLTLAFREGTINVHDVETQFNQYKTEAASRYNLTISDVSVSDVPFPFSAQSGAGVPGWGIALLVLVCVLVALAIVYLIALAVCQCRRKNYGQLDIFPARDTYHPMSEYPTYHTHGRYVPPSSTDRSPYEKVSAGNGGSSLSYTNPAVAATSANL
notes: Endogenous protein immunoprecipitated from MCF7 lysates with an anti-MUC1-C antibody
no binding: cIAP1 | Bcl-xL | Bcl-2 | XIAP | cIAP2
